The target in the assay is T1, SiOBP15, purified, His-tag removed (Solenopsis invicta).
T1 construct: the ORF cloned into pET28a; also called purified SiOBP15; SiOBP15 protein (ligand); source: E. coli BL21, purified (Ni-Sepharose Cl-6B agarose), His-tag removed by protease cleavage
Briefly: SPR; open SPR; SiOBP15 coupled to a COOH chip until saturation, SiApoLp-III or SiFABP5 titrated as analyte; one-to-one model (TraceDrawer). The following applies: both partners purified. On the technique in general: SPR reads the build-up and loss of mass on a sensor chip optically.

In general, Kd refers to the equilibrium constant for the complex coming apart.

B1: SiApoLp-III, purified, His-tag removed (natural protein)
chain: EQSGTQPQLSDYIRDAQTAISSLGTQIQEHLNLPNQEELANTFKEQSTNFANNVQAYLQNITDEVKAKSPELEDFWTNMKTKLSEAVDNLHINPETTEQVNQLRAKFQEGVQTLVTESENAAKTISENSGKVQESIAKITKQAIDIAVKASQNLNQQLQQATTPQP
B1 gave a Kd of 713 nM.
